Laboratory results published in US20200262873A1.
Positions count from the first letter of the chain named.

B1: Recombinant type immunoglobulin κ light chain binding protein KBP0 (designed binder)
chain: KETPETPEEPKEEVTIKVNLIFADGKTQTATFKGTFEEATAEAYRYADLLAKVNGEYTADLEDGGYTINIKFAGKKETPETPEEPKEEVTIKVNLIFADGKTQTATFKGTFEEATAEAYRYADLLAKVNGEYTADLEDGGYTINIKFAGKKETPETPEEPKEEVTIKVNLIFADGKTQTATFKGTFEEATAEAYRYADLLAKVNGEYTADLEDGGYTINIKFAGKKETPETPEEPKEEVTIKVNLIFADGKTQTATFKGTFEEATAEAYRYADLLAKVNGEYTADLEDGGYTINIKFAGK
B2: Recombinant immunoglobulin κ light chain binding protein KBP4 (designed binder)
chain: B1 chain with Q28H, Q103H, Q178H, Q253H
B3: Recombinant immunoglobulin κ light chain binding protein KBP7 (designed binder)
chain: B1 chain with G34H, G109H, G184H, G259H
B4: Recombinant immunoglobulin κ light chain binding protein KBP8 (designed binder)
chain: B1 chain with E38K, E113K, E188K, E263K
B5: Recombinant immunoglobulin κ light chain binding protein KBP2 (designed binder)
chain: B1 chain with V18H, V93H, V168H, V243H
B6: Recombinant immunoglobulin κ light chain binding protein KBP5 (designed binder)
chain: B1 chain with A30H, A105H, A180H, A255H
B7: Recombinant immunoglobulin κ light chain binding protein KBP10 (designed binder)
chain: B1 chain with Y57H, Y132H, Y207H, Y282H
B8: Recombinant immunoglobulin κ light chain binding protein KBP1 (designed binder)
chain: B1 chain with I16H, I91H, I166H, I241H
B9: Recombinant immunoglobulin κ light chain binding protein KBP9 (designed binder)
chain: B1 chain with E42K, E117K, E192K, E267K
B10: Recombinant immunoglobulin κ light chain binding protein KBP3 (designed binder)
chain: B1 chain with L20H, L95H, L170H, L245H
B11: Recombinant immunoglobulin κ light chain binding protein KBP6 (designed binder)
chain: B1 chain with F32H, F107H, F182H, F257H
B12: Recombinant immunoglobulin κ light chain binding protein KBP11 (designed binder)
chain: B1 chain with I70H, I145H, I220H, I295H
B13: Recombinant immunoglobulin κ light chain binding protein KBP12 (designed binder)
chain: KETPETPEEPKEEVTIKVNLIFADGRTQTATFKHRFEEATAKAYRYADLLAKVQGEYTADLEDGGYTINIKFAGKKETPETPEEPKEEVTIKVNLIFADGRTQTATFKHRFEEATAKAYRYADLLAKVQGEYTADLEDGGYTINIKFAGKKETPETPEEPKEEVTIKVNLIFADGRTQTATFKHRFEEATAKAYRYADLLAKVQGEYTADLEDGGYTINIKFAGKKETPETPEEPKEEVTIKVNLIFADGRTQTATFKHRFEEATAKAYRYADLLAKVQGEYTADLEDGGYTINIKFAGK
B14: Recombinant immunoglobulin κ light chain binding protein KBP13 (designed binder)
chain: B13 chain with H34G, Y57H, H109G, Y132H, H184G, Y207H, H259G, Y282H
B15: Recombinant immunoglobulin κ light chain binding protein KBP14 (designed binder)
chain: B13 chain with F32H, H34G, F107H, H109G, F182H, H184G, F257H, H259G

Target: human IgG (IgG Sepharose 6 Fast Flow, GE Healthcare Biosciences Corp.) (human)
Experiment: IgG Sepharose 6 Fast Flow column; bound at neutral pH, eluted at pH 3.0 then pH 2.5; peak area A/(A+B)

Antibody dissociation rate (%) at pH 3.0 | Binder
50% | B1
95% | B2
97% | B3
80% | B4
98% | B5
92% | B6
97% | B7
95% | B8
95% | B9
95% | B10
92% | B11
99% | B12
100% | B13
100% | B14
100% | B15
